Assay results: patent publication US20060257938A1, “Method of screening for drugs that block ligand binding to a lipid binding protein” (priority 2005, published 2006)
Where “and” joins values, the source holds several entries; their conditions need not be identical. Identical values can stand only once.

How the values were obtained:
Format in all cases: binding
[1] = Probe fluorescence ratio response to linolenic acid relative to ADIFAB2; conditions: response relative to ADIFAB2
Summary of the method: (§1)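 Fluorescently labeled rat intestinal FABP variants were read at two emission wavelengths, near the unbound maximum (about 420 to 480 nm) and the FFA-bound maximum (about 495 to 580 nm). R = Fλ1/Fλ2 after subtracting probe-free intensity; ΔR = R+agent − R0, normalized to ADIFAB2 (rI-FABP-L72A).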

[2] = Probe fluorescence ratio response to palmitic acid relative to ADIFAB2; conditions: response relative to ADIFAB2
Summary of the method: as §1

[3] = Probe fluorescence ratio response to linoleic acid relative to ADIFAB2; conditions: response relative to ADIFAB2
Summary of the method: as §1

[4] = Probe fluorescence ratio response to oleic acid relative to ADIFAB2; conditions: response relative to ADIFAB2
Summary of the method: as §1

[5] = Probe fluorescence ratio response to arachidonic acid relative to ADIFAB2; conditions: arachidonic acid; response relative to ADIFAB2
Summary of the method: as §1

B1: 14N, 72A (protein, listed as Rattus norvegicus)
chain: AFDGTWKVDRNENNEKFMEKMGINVVKRKLGAHDNLKLTITQEGNKFTVKESSNFRNIDVVFELGVDFAYSAADGTELTGTWTMEGNKLVGKFKRVDNGKELIAVREISGNELIQTYTYEGVEAKRIFKKE
modifications: PEPTIDE (1)...(131) wild-type rat intestinal fatty acid binding protein
**Q.** What does the source list for B1?
**A.** DR/DR LNA [1]: 0.53; DR/DR PA [2]: 0.32; DR/DR LA [3]: 0.49; DR/DR OA [4]: 0.35; DR/DR AA [5]: 0.42

B2: 14W, 72A (protein, listed as Rattus norvegicus)
chain: AFDGTWKVDRNENWEKFMEKMGINVVKRKLGAHDNLKLTITQEGNKFTVKESSNFRNIDVVFELGVDFAYSAADGTELTGTWTMEGNKLVGKFKRVDNGKELIAVREISGNELIQTYTYEGVEAKRIFKKE
modifications: PEPTIDE (1)...(131) wild-type rat intestinal fatty acid binding protein
**Q.** For B2, which “DR/DR LNA” value [1] is on record?
**A.** Its value is 0.31.

**Q.** And the “DR/DR PA” value [2]?
**A.** The value was 0.23.

**Q.** And the “DR/DR LA” value [3]?
**A.** Its value is 0.33.

**Q.** And the “DR/DR OA” value [4]?
**A.** Its value is 0.26.

**Q.** What about the “DR/DR AA” value [5] of the same molecule?
**A.** Its value is 0.30.

B3: 14T, 72A (protein, listed as Rattus norvegicus)
chain: AFDGTWKVDRNENTEKFMEKMGINVVKRKLGAHDNLKLTITQEGNKFTVKESSNFRNIDVVFELGVDFAYSAADGTELTGTWTMEGNKLVGKFKRVDNGKELIAVREISGNELIQTYTYEGVEAKRIFKKE
modifications: PEPTIDE (1)...(131) wild-type rat intestinal fatty acid binding protein
**Q.** For B3, which “DR/DR LNA” value [1] is on record?
**A.** Its value is 1.15.

**Q.** What about the “DR/DR PA” value [2] of the same molecule?
**A.** The value was 0.36.

**Q.** And the “DR/DR LA” value [3]?
**A.** Its value is 0.76.

**Q.** What about the “DR/DR OA” value [4] of the same molecule?
**A.** The value was 0.56.

**Q.** What about the “DR/DR AA” value [5] of the same molecule?
**A.** Its value is 0.64.

B4: 14R, 72A (protein, listed as Rattus norvegicus)
chain: AFDGTWKVDRNENREKFMEKMGINVVKRKLGAHDNLKLTITQEGNKFTVKESSNFRNIDVVFELGVDFAYSAADGTELTGTWTMEGNKLVGKFKRVDNGKELIAVREISGNELIQTYTYEGVEAKRIFKKE
modifications: PEPTIDE (1)...(131) wild-type rat intestinal fatty acid binding protein
**Q.** Which “DR/DR LNA” value [1] does the source give for B4 here?
**A.** Its value is 0.51.

**Q.** What about the “DR/DR PA” value [2] of the same molecule?
**A.** Its value is 0.26.

**Q.** What about the “DR/DR LA” value [3] of the same molecule?
**A.** The value was 0.56.

**Q.** And the “DR/DR OA” value [4]?
**A.** The value was 0.26.

**Q.** And the “DR/DR AA” value [5]?
**A.** Its value is 0.49.

B5: 14P, 72A (protein, listed as Rattus norvegicus)
chain: AFDGTWKVDRNENPEKFMEKMGINVVKRKLGAHDNLKLTITQEGNKFTVKESSNFRNIDVVFELGVDFAYSAADGTELTGTWTMEGNKLVGKFKRVDNGKELIAVREISGNELIQTYTYEGVEAKRIFKKE
modifications: PEPTIDE (1)...(131) wild-type rat intestinal fatty acid binding protein
**Q.** Which “DR/DR LNA” value [1] does the source give for B5 here?
**A.** The value was 0.64.

**Q.** What about the “DR/DR PA” value [2] of the same molecule?
**A.** The value was 0.30.

**Q.** What about the “DR/DR LA” value [3] of the same molecule?
**A.** Its value is 0.64.

**Q.** What about the “DR/DR OA” value [4] of the same molecule?
**A.** The value was 0.58.

**Q.** What about the “DR/DR AA” value [5] of the same molecule?
**A.** The value was 0.55.

B6: 17A, 72A (protein, listed as Rattus norvegicus)
chain: AFDGTWKVDRNENYEKAMEKMGINVVKRKLGAHDNLKLTITQEGNKFTVKESSNFRNIDVVFELGVDFAYSAADGTELTGTWTMEGNKLVGKFKRVDNGKELIAVREISGNELIQTYTYEGVEAKRIFKKE
modifications: PEPTIDE (1)...(131) wild-type rat intestinal fatty acid binding protein
**Q.** For B6, which “DR/DR LNA” value [1] is on record?
**A.** The value was 0.97.

**Q.** What about the “DR/DR PA” value [2] of the same molecule?
**A.** Its value is 0.24.

**Q.** What about the “DR/DR LA” value [3] of the same molecule?
**A.** Its value is 0.56.

**Q.** What about the “DR/DR OA” value [4] of the same molecule?
**A.** Its value is 0.38.

**Q.** What about the “DR/DR AA” value [5] of the same molecule?
**A.** Its value is 0.53.

B7: 17C, 72A (protein, listed as Rattus norvegicus)
chain: AFDGTWKVDRNENYEKCMEKMGINVVKRKLGAHDNLKLTITQEGNKFTVKESSNFRNIDVVFELGVDFAYSAADGTELTGTWTMEGNKLVGKFKRVDNGKELIAVREISGNELIQTYTYEGVEAKRIFKKE
modifications: PEPTIDE (1)...(131) wild-type rat intestinal fatty acid binding protein
**Q.** With B7 as the molecule, how does the “DR/DR LNA” value [1] read?
**A.** The value was 0.26.

**Q.** And the “DR/DR PA” value [2]?
**A.** The value was 0.10.

**Q.** What about the “DR/DR LA” value [3] of the same molecule?
**A.** Its value is 0.25.

**Q.** What about the “DR/DR OA” value [4] of the same molecule?
**A.** The value was 0.31.

**Q.** And the “DR/DR AA” value [5]?
**A.** The value was 0.15.

B8: 14Q, 72A (protein, listed as Rattus norvegicus)
chain: AFDGTWKVDRNENQEKFMEKMGINVVKRKLGAHDNLKLTITQEGNKFTVKESSNFRNIDVVFELGVDFAYSAADGTELTGTWTMEGNKLVGKFKRVDNGKELIAVREISGNELIQTYTYEGVEAKRIFKKE
modifications: PEPTIDE (1)...(131) wild-type rat intestinal fatty acid binding protein
**Q.** What does the source list for B8?
**A.** DR/DR LNA [1]: 0.52; DR/DR PA [2]: 0.33; DR/DR LA [3]: 0.48; DR/DR OA [4]: 0.29; DR/DR AA [5]: 0.50

B9: 14S, 72A (protein, listed as Rattus norvegicus)
chain: AFDGTWKVDRNENSEKFMEKMGINVVKRKLGAHDNLKLTITQEGNKFTVKESSNFRNIDVVFELGVDFAYSAADGTELTGTWTMEGNKLVGKFKRVDNGKELIAVREISGNELIQTYTYEGVEAKRIFKKE
modifications: PEPTIDE (1)...(131) wild-type rat intestinal fatty acid binding protein
**Q.** With B9 as the molecule, how does the “DR/DR LNA” value [1] read?
**A.** The value was 0.53.

**Q.** What about the “DR/DR PA” value [2] of the same molecule?
**A.** Its value is 0.27.

**Q.** What about the “DR/DR LA” value [3] of the same molecule?
**A.** The value was 0.53.

**Q.** And the “DR/DR OA” value [4]?
**A.** Its value is 0.33.

**Q.** And the “DR/DR AA” value [5]?
**A.** Its value is 0.46.

B10: 14V, 72A (protein, listed as Rattus norvegicus)
chain: AFDGTWKVDRNENVEKFMEKMGINVVKRKLGAHDNLKLTITQEGNKFTVKESSNFRNIDVVFELGVDFAYSAADGTELTGTWTMEGNKLVGKFKRVDNGKELIAVREISGNELIQTYTYEGVEAKRIFKKE
modifications: PEPTIDE (1)...(131) wild-type rat intestinal fatty acid binding protein
**Q.** What does the source list for B10?
**A.** DR/DR LNA [1]: 0.87 and 0.868; DR/DR PA [2]: 0.43; DR/DR LA [3]: 0.84 and 0.836; DR/DR OA [4]: 0.51 and 0.513; DR/DR AA [5]: 0.76 and 0.756

B11: 102K, 72A (protein, listed as Rattus norvegicus)
chain: AFDGTWKVDRNENYEKFMEKMGINVVKRKLGAHDNLKLTITQEGNKFTVKESSNFRNIDVVFELGVDFAYSAADGTELTGTWTMEGNKLVGKFKRVDNGKEKIAVREISGNELIQTYTYEGVEAKRIFKKE
modifications: PEPTIDE (1)...(131) wild-type rat intestinal fatty acid binding protein
**Q.** For B11, which “DR/DR LNA” value [1] is on record?
**A.** The value was 0.51.

**Q.** What about the “DR/DR PA” value [2] of the same molecule?
**A.** The value was 0.23.

**Q.** What about the “DR/DR LA” value [3] of the same molecule?
**A.** Its value is 0.55.

**Q.** And the “DR/DR OA” value [4]?
**A.** Its value is 0.48.

**Q.** What about the “DR/DR AA” value [5] of the same molecule?
**A.** Its value is 0.47.
